According to patent US20140135482A1 (Hoffmann-La Roche, published 2014):

B1: MH_TvAB21 (bispecific antibody)
chain 1: not shown
chain 2: not shown
chain 3: DIVMTQSPSSLTVTAGENVTMSCKSSQSLLNSGNQKNYLTWYQQKPGQPPKLLIYWASTRESGVPNRFTGSGSGTDFTLAISSVQAEDLSIYYCQSDYSYPYTFGQGTKLEIKRTVAAPSVFIFPPSDEQLKSGTASVVCLLNNFYPREAKVQWKVDNALQSGNSQESVTEQDSKDSTYSLSSTLTLSKADYEKHKVYACEVTHQGLSSPVTKSFNRGEC
B2: MH_TvAB22 (bispecific antibody)
chain 1: not shown
chain 2: not shown
chain 3: B1 chain 3
B3: <c-Met> Mab 5D5 (antibody, human IgG1, kappa, V domains shown)
VH: EVQLVESGGGLVQPGGSLRLSCAASGYTFTSYWLHWVRQAPGKGLEWVGMIDPSNSDTRFNPNFKDRFTISADTSKNTAYLQMNSLRAEDTAVYYCATYRSYVTPLDYWGQGTLVTVSS
VL: DIQMTQSPSSLSASVGDRVTITCKSSQSLLYTSSQKNYLAWYQQKPGKAPKLLIYWASTRESGVPSRFSGSGSGTDFTLTISSLQPEDFATYYCQQYYAYPWTFGQGTKVEIKR
notes: Monospecific, bivalent c-Met parent antibody (humanized); also called c-Met 5D5; bivalent 5D5
B4: <ErbB3-c-Met> Her3/Met_6C (bispecific antibody, human IgG1, kappa)
heavy 1: not shown
heavy 2: not shown
light: DIQMTQTTSSLSASLGDRVTISCRARQDISNYLNWYQRKPDGTVKLLIYYTSRLHSGVPSRFSGSGSGTDYSLTISNLEQEDIATYFCQQGNTFPWTFGGGTKLEIKRTVAAPSVFIFPPSDEQLKSGTASVVCLLNNFYPREAKVQWKVDNALQSGNSQESVTEQDSKDSTYSLSSTLTLSKADYEKHKVYACEVTHQGLSSPVTKSFNRGEC
B5: <ErbB3-c-Met> Her3/Met_KHSS (bispecific antibody, human IgG1, kappa)
heavy 1: not shown
heavy 2: not shown
light: B4 light
notes: also called Her3/c-Met KHSS
B6: <ErbB3-c-Met> Her3/Met_SSKH (bispecific antibody, human IgG1, kappa)
heavy 1: not shown
heavy 2: not shown
light: B4 light
B7: <ErbB3-c-Met> Her3/Me_scFvSSKH (bispecific antibody, human IgG1, kappa)
heavy 1: not shown
heavy 2: not shown
light: B4 light
B8: <ErbB3> Mab 205 (chimeric) (antibody, V domains shown)
VH: QGQMQQSGAELVKPGASVKLSCKTSGFTFRSSYISWLKQKPRQSLEWIAWIYAGTGSPSYNQKFTGKAQLTVDTSSSTAYMQLSSLTSEDSAIYYCARHRDYYSNSLTYWGQGTLVTVSA
VL: DIVMTQSPSSLTVTAGENVTMSCKSSQSLLNSGNQKNYLTWYQQKPGQPPKLLIYWASTRESGVPNRFTGSGSGTDFTLAISSVQAEDLSIYYCQSDYSYPYTFGQGTKLEIK
B9: <ErbB3> HER3 clone 29 (antibody, human IgG1, kappa, V domains shown)
VH: DVQLQESGPGLVKPSQSLSLTCSVTGYSITSAYYWNWIRQFPGNKLEWMGYISYGGSNSYAPSLKNRFSITRDTSKNQFFLKLNSVTTEDTATYYCARESDYAYFDYWGQGTTLTVSS
VL: DIQMTQTTSSLSASLGDRVTISCRARQDISNYLNWYQRKPDGTVKLLIYYTSRLHSGVPSRFSGSGSGTDYSLTISNLEQEDIATYFCQQGNTFPWTFGGGTKLEIKR
notes: Monospecific bivalent parent antibody (chimeric)

How the values were obtained:
[1] = biological target: T1, recombinant Her3 ectodomain (ECD) (human, UniProt P21860 20-643); assay: SPR (Biacore T100), antibody captured by anti-Fc gamma antibody, ECD in solution, 25 C
T1 construct: the whole entry for human ErbB-3 is named; also called human HER3 ECD

[2] = biological target: T2, recombinant c-Met ectodomain (ECD) (human, UniProt P08581 25-932); assay: as above
T2 construct: the whole entry for human c-Met is named; also called c-Met ECD

[3] = biological target: T3, human c-Met (on cells) (human, UniProt P08581 25-1390); assay: flow cytometry on A431 cells, dilution series of the antibody, detected with PE-coupled anti-human Fc antibody
T3 construct: Endogenous receptor on human cell lines (A431, A549, HT29, DU145, HUVEC); also called c-Met receptor
Procedure: (§1) A431 were detached and counted. 1.5×10e5 cells were seeded per well of a conical 96-well plate. Cells were spun down (1500 rpm, 4° C., 5 min) and incubated for 30 min on ice in 50 μL of a dilution series of the respective bispecific antibody in PBS with 2% FCS (fetal calf serum). Cells were again spun down and washed once with 200 μL PBS containing 2% FCS followed by a second incubation of 30 min with a phycoerythrin-coupled antibody directed against human Fc which was diluted in PBS containing 2% FCS (Jackson Immunoresearch, 109116098). Cells were spun down washed twice with 200 μL PBS containing 2% FCS, resuspended in BD CellFix solution (BD Biosciences) and incubated for at least 10 min on ice. Mean fluorescence intensity (mfi) of the cells was determined by flow cytometry (FACS Canto, BD). Mfi was determined at least in duplicates of two independent stainings Flow cytometry spectra were further processed using the FlowJo software (TreeStar). Half-maximal binding was determined using XLFit 4.0 (IDBS) and the dose response one site model 205.
(§2) The binding properties of the bispecific antibodies to their respective receptor on the cell surface was analyzed on A431 cancer cells in a flow cytometry based assay. Cells were incubated with the mono- or bispecific primary antibodies and binding of these antibodies to their cognate receptors was detected with a secondary antibody coupled to a fluorophor binding specifically to the Fc of the primary antibody. The mean fluorescence intensity of a dilution series of the primary antibodies was plotted against the concentration of the antibody to obtain a sigmoidal binding curve.

[4] = biological target: T4, human ErbB-3 (on cells) (human, UniProt P21860 20-1342); assay: cell-based or functional assay
[5] = biological target: T4, human ErbB-3 (on cells); assay: flow cytometry on A431 cells, dilution series of the antibody, detected with PE-coupled anti-human Fc antibody
Procedure: as §1, §2

[6] = biological target: T4, human ErbB-3 (on cells); assay: flow cytometry on A431 cells, dilution series of the bispecific antibody in the presence of Fab 5D5 (its concentration is not given on the sheet), detected with PE-coupled anti-human Fc antibody

Binder | % ErbB3 receptor on A431 cell surface measured after 2 h [4] | % Internalization of ErbB3 after 2 h on A431 cells [4] | further results
B1 |  |  | Kd [1]: 1.8 nM; Kd [2]: 0.8 nM
B2 |  |  | Kd [1]: 2.1 nM; Kd [2]: 0.9 nM
B3 |  |  | EC50 (read off the curve) [3]: ~0.06 µg/mL
B4 | 94% | 6% | 
B5 |  |  | binding result [5]: binds
B6 | 89% | 11% | 
B7 |  |  | EC50 (read off the curve) [6]: ~0.06 µg/mL
B8 | 60% | 40% | 
B9 | 44% | 54% | EC50 (read off the curve) [5]: ~0.03 µg/mL
